The text below walks through data of article PMC11327358 (Nature Communications, 2024).

Assay [1] addresses S2A5-L1^A (S2A5 with alanine substitution in light chain region 26-30C) (mouse | human). As to the kind of experiment: BLI. For orientation: Biolayer interferometry detects binding as a change in optical thickness at a sensor tip.
Assay [2] deals with GTV Gn head domain (residues 19-337) (Guertu virus (GTV), GenBank KT328592.1, UniProt A0A0S2Z2X2). As to the kind of experiment: ELISA.

Consider “SFTSV Gn head domain protein (residues 20-340, strain WCH97, genotype A) (domain or fragment)”, for which the fold decrease of binding affinity against WT S2A5 in assay [1] amounted to 11 fold.

B1: mAb N1D10 (mouse variable regions on human IgG1) (antibody, V domains shown)
VH: EVKLVESGGGLVQPGGSLKLSCAASGFTFSTYTMSWVRQTPEKRLEWVAYISNGGGSTYYPDTVKGRFTISRDNAKNTLYLQMSSLNSEDTAMYYCARSYGNFDVWGAGTTVTVSS
VL: DVVMTQTPLSLPVSFGDQVSISCRSSQSLANSYGNTYLSWYLHKPGQSPQLLIYGISKRFSGVPDRFSGSGSGTDFTLKISTIKPEDLGMYYCLQGTHQPWTFGGGTKLEIK
Turning to B1, the binding result in assay [2] is reported as “binds”.

B2: mAb B1G11 (mouse variable regions on human IgG1) (antibody, V domains shown)
VH: EVKLMESGGGLVQPGDSLRLSCAISGFTFSDYYMSWVRQPPGKALEWLGFIRNKAKGYTTEYSASVKGRFTISRDNSQSILYLQMNTLRAEDSATYYCARDYRYDDEYYYAMDYWGQGTSVTVSS
VL: GVVMTQTTSSLSASLGDRVTISCSASQGISNYLNWYQQKPDGTVKLLIYYTSILHSGVPSRFSGSGSGTDYSLTISNLEPEDIATYYCQQYSKFPRTFGGGTKLEIK
Take B2: the binding result in assay [2] is reported as “binds”.

B3: mAb S2A5 (mouse variable regions on human IgG1) (antibody, V domains shown)
VH: EVQLQQSGPELVKPGASVKVSCKASGYSFSDDNMYWVKQSHGKSLEWIGYIDPDNGGTSYNQKFKGKATLTVDKSSSTAFMHLNSLTSEDSAVYYCAREDYYGSRAMDYWGQGTSVTVSS
VL: DIVLTQSPASLAVSLGQRATISCKASQSVDYAGDSYMNWYQQKPGQPPKLLIYAASNLESAIPARFSGSGSGTDFTLNIHPVQEEDAATYYCQQSYEDPRTFGGGTKLEIK
As to B3, in assay [2], the binding result is listed as “binds”.
